Reference: patent publication US20210130436A1 (published 2021)

T1: CD96 (UniProt P40200 22-585, limits assumed)
T1 construct: whole, on cells
T1 sequence (looked up): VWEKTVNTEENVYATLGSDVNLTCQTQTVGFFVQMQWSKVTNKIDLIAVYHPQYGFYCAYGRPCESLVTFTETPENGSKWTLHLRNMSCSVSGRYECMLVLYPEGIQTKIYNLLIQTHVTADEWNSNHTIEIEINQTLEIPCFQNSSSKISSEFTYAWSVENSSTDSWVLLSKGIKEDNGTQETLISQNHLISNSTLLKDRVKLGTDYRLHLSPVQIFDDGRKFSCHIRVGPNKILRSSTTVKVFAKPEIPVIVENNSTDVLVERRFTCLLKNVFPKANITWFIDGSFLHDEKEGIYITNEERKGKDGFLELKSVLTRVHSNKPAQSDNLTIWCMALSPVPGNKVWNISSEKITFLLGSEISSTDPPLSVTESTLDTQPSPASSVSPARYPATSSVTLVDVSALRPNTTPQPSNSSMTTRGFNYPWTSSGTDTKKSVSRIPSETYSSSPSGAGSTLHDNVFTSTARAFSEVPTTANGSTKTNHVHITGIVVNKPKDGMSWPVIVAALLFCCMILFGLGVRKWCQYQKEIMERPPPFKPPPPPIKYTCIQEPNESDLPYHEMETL

T2: CD226 (UniProt Q15762 19-336)
T2 construct: whole, on cells
T2 sequence (looked up): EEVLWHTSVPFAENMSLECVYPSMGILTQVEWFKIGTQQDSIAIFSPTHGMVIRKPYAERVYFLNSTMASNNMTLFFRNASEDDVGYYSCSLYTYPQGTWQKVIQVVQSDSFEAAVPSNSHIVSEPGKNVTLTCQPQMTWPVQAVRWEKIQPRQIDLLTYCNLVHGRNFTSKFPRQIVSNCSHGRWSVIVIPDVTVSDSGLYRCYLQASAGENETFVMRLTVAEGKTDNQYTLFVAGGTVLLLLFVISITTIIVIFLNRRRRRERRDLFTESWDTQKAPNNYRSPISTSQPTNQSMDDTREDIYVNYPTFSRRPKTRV

T3: TIGIT (UniProt Q495A1 22-244)
T3 construct: whole, on cells
T3 sequence (looked up): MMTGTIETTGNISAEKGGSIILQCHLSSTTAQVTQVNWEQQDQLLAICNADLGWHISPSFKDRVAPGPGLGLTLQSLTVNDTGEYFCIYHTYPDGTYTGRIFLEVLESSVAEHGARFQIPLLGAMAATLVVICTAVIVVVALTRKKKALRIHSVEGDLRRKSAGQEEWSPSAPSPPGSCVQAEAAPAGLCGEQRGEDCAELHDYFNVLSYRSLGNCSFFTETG


Tests used:
[1] = target: T4, human CD28 (human, UniProt P10747 19-220); test: flow cytometry on Jurkat cells (CD28)
T4 construct: Endogenous CD28 on Jurkat/IL2 reporter cells

[2] = target: T5, human CTLA-4 (human, UniProt P16410 36-223); test: flow cytometry on CHO cells stably expressing CTLA4
T5 construct: also called huCTLA4
T5 sequence (P16410 36-223): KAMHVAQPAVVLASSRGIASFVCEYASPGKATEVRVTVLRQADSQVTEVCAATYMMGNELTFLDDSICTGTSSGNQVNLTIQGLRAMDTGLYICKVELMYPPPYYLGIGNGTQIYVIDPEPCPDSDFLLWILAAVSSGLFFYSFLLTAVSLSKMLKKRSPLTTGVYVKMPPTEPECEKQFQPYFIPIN

[3] = target: T6, human PD-L1 (human, UniProt Q9NZQ7 19-290); test: flow cytometry on CHO cells stably expressing PD-L1
T6 construct: also called huPD-L1; CD274
T6 sequence (Q9NZQ7 19-290): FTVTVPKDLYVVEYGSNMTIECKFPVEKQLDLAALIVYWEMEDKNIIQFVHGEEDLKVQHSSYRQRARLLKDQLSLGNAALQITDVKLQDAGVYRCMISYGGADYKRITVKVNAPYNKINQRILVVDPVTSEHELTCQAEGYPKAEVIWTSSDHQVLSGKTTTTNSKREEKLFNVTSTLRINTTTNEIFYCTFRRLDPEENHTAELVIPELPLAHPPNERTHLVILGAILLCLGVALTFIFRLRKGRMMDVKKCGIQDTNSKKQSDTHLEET

[4] = target: T1, CD96; test: flow cytometry on cells expressing CD96, Fc fusion at 100 nM
[5] = target: T2, CD226; test: flow cytometry on cells expressing CD226, Fc fusion at 100 nM
[6] = target: T3, TIGIT; test: flow cytometry on cells expressing TIGIT, Fc fusion at 100 nM

Row | MFI at 33.3 nM [1] | MFI at 33.3 nM [2] | MFI at 33.3 nM [3] | MFI at 100 nM [4] | MFI at 100 nM [5] | MFI at 100 nM [6] | Binder
1 | 1280 MFI | 27100 MFI | 24500 MFI | – | – | – | CD80 E35D/M47V/N48K/V68M/K89N IgV-Fc, (EAAAK)3 linker (Fc fusion, not shown: a dimerising Fc or GST) VIHVTKEVKEVATLSCGHNVSVEELAQTRIYWQKDKKMVLTMMSGDVKIWPEYKNRTIFDITNNLSIMILALRPSDEGTYECVVLKYENDAFKREHLAEVTLSVKADEAAAKEAAAKEAAAK
2 | – | – | – | 1620 MFI | 2190 MFI | 1930 MFI | CD155 S42A variant IgV-Fc fusion (Fc fusion, not shown: a dimerising Fc or GST) WPPPGTGDVVVQAPTQVPGFLGDSVTLPCYLQVPNMEVTHVAQLTWARHGESGSMAVFHQTQGPSYSESKRLEFVAARLGAELRNASLRMFGLRVEDEGNYTCLFVTFPQGSRSVDIWLRVL
3 | – | – | – | 1640 MFI | 2160 MFI | 1920 MFI | CD155 S42G/S52L/Q62F/L104Q variant IgV-Fc fusion (Fc fusion, not shown: a dimerising Fc or GST) WPPPGTGDVVVQAPTQVPGFLGDSVTLPCYLQVPNMEVTHVGQLTWARHGELGSMAVFHQTFGPSYSESKRLEFVAARLGAELRNASLRMFGLRVEDEGNYTCQFVTFPQGSRSVDIWLRVL
4 | – | – | – | 1620 MFI | 2190 MFI | 1930 MFI | CD155 S42L variant IgV-Fc fusion (Fc fusion, not shown: a dimerising Fc or GST) WPPPGTGDVVVQAPTQVPGFLGDSVTLPCYLQVPNMEVTHVLQLTWARHGESGSMAVFHQTQGPSYSESKRLEFVAARLGAELRNASLRMFGLRVEDEGNYTCLFVTFPQGSRSVDIWLRVL
5 | – | – | – | 1690 MFI | 1910 MFI | 1820 MFI | CD155 S42N variant IgV-Fc fusion (Fc fusion, not shown: a dimerising Fc or GST) WPPPGTGDVVVQAPTQVPGFLGDSVTLPCYLQVPNMEVTHVNQLTWARHGESGSMAVFHQTQGPSYSESKRLEFVAARLGAELRNASLRMFGLRVEDEGNYTCLFVTFPQGSRSVDIWLRVL
6 | – | – | – | 1480 MFI | 2080 MFI | 1860 MFI | CD155 S42C/S52M/Q62F variant IgV-Fc fusion (Fc fusion, not shown: a dimerising Fc or GST) WPPPGTGDVVVQAPTQVPGFLGDSVTLPCYLQVPNMEVTHVCQLTWARHGEMGSMAVFHQTFGPSYSESKRLEFVAARLGAELRNASLRMFGLRVEDEGNYTCLFVTFPQGSRSVDIWLRVL
7 | – | – | – | 1540 MFI | 1740 MFI | 1780 MFI | CD155 S42N/S52E/V57L/L104E variant IgV-Fc fusion (Fc fusion, not shown: a dimerising Fc or GST) WPPPGTGDVVVQAPTQVPGFLGDSVTLPCYLQVPNMEVTHVNQLTWARHGEEGSMALFHQTQGPSYSESKRLEFVAARLGAELRNASLRMFGLRVEDEGNYTCEFVTFPQGSRSVDIWLRVL
8 | – | – | – | 2530 MFI | 2270 MFI | 2060 MFI | CD155 S42V/S52E variant IgV-Fc fusion (Fc fusion, not shown: a dimerising Fc or GST) WPPPGTGDVVVQAPTQVPGFLGDSVTLPCYLQVPNMEVTHVVQLTWARHGEEGSMAVFHQTQGPSYSESKRLEFVAARLGAELRNASLRMFGLRVEDEGNYTCLFVTFPQGSRSVDIWLRVL
9 | – | – | – | – | 2020 MFI | 2010 MFI | CD155 S42G/S52Q/L104E/G111R variant IgV-Fc fusion (Fc fusion, not shown: a dimerising Fc or GST) WPPPGTGDVVVQAPTQVPGFLGDSVTLPCYLQVPNMEVTHVGQLTWARHGEQGSMAVFHQTQGPSYSESKRLEFVAARLGAELRNASLRMFGLRVEDEGNYTCEFVTFPQRSRSVDIWLRVL
